{
  "source": "IntAct's records for PubMed 12023880",
  "parents": {"B1": {"name": "Tyrosine-protein phosphatase non-receptor type 1 (Homo sapiens), P18031 (parent)", "chain": "MEMEKEFEQIDKSGSWAAIYQDIRHEASDFPCRVAKLPKNKNRNRYRDVSPFDHSRIKLHQEDNDYINASLIKMEEAQRSYILTQGPLPNTCGHFWEMVWEQKSRGVVMLNRVMEKGSLKCAQYWPQKEEKEMIFEDTNLKLTLISEDIKSYYTVRQLELENLTTQETREILHFHYTTWPDFGVPESPASFLNFLFKVRESGSLSPEHGPVVVHCSAGIGRSGTFCLADTCLLLMDKRKDPSSVDIKKVLLEMRKFRMGLIQTADQLRFSYLAVIEGAKFIMGDSSVQDQWKELSHEDLEPPPEHIPPPPRPPKRILEPHNGKCREFFPNHQWVKEETQEDKDCPIKEEKGSPLNAAPYGIESMSQDTEVRSRVVGGSLRGAQAASPAKGEPSLPEKDEDHALSYWKPFLVNMCVATVLTAGAYLCYRFLFNSNT"}, "B2": {"name": "Tyrosine-protein phosphatase non-receptor type 1 (Homo sapiens), P18031 (parent)", "chain": "B1 chain", "partner": "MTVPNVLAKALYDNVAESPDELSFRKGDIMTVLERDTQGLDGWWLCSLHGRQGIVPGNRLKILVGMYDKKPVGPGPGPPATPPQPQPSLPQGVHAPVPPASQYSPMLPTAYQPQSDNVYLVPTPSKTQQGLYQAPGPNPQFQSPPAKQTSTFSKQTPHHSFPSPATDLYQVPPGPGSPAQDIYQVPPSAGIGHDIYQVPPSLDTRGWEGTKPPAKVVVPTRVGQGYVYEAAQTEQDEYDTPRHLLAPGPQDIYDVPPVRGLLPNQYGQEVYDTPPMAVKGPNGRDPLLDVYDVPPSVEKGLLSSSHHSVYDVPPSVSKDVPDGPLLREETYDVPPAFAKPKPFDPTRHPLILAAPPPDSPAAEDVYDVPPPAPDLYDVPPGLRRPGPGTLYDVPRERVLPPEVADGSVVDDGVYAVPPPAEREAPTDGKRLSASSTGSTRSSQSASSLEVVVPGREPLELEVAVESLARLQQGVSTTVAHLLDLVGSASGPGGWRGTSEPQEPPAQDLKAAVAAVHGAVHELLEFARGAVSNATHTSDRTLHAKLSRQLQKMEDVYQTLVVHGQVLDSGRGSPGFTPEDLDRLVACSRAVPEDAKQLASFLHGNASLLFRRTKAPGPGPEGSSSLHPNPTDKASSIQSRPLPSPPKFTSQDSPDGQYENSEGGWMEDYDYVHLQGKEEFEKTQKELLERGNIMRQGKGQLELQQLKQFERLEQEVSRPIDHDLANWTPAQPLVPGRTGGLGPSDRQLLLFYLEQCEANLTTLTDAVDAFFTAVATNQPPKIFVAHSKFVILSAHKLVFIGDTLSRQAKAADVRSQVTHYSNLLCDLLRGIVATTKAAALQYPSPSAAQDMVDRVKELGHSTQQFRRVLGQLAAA"}},
  "data": [
    {"variants_of": "B1", "conditions": "with insr_rat Insr", "values": [
      {"variant": "Y152F;Y153F", "effect of a mutation on the interaction": "disrupting interaction"}
    ]},
    {"variants_of": "B1", "conditions": "with src_rat Src", "values": [
      {"variant": "P309A;P310A", "effect of a mutation on the interaction": "disrupting interaction"}
    ]},
    {"variants_of": "B1", "conditions": "with grb2_rat Grb2, P62994", "values": [
      {"variant": "P309A;P310A", "effect of a mutation on the interaction": "disrupting interaction"}
    ]},
    {"variants_of": "B1", "conditions": "with crk_rat Crk", "values": [
      {"variant": "P309A;P310A", "effect of a mutation on the interaction": "disrupting interaction"}
    ]},
    {"variants_of": "B2", "conditions": "with bcar1_mouse Bcar1, Q61140", "values": [
      {"variant": "P309A;P310A", "effect of a mutation on the interaction": "disrupting interaction"}
    ]}
  ]
}
